From patent US20190276499A1, “Protein VII Fragments and Methods of Use Thereof for the Treatment of Inflammatory Disorders” (priority 2016, published 2019) come the findings set out here.

One test has as its system cellular chromatin. Description: Chromatin appearance in inducible cell lines (immunofluorescence, DAPI). In kind it is cell-based. The conditions noted are these: inducible expression. The text has this:
Primary small airway epithelial cells (SAECs), U2OS, HeLa, 293, THP-1 and A549 cells were obtained from the American Tissue Culture Collection (ATCC) and grown according to the provider's instructions. Acceptor cells for generation of inducible cell lines were used as reported (Khandelia et al. (2011) Proc. Natl. Acad. Sci., 108:12799-12804). Protein VII, preVII and V were cloned from genomic DNA isolated from HeLa cells infected with adenovirus type 5 and inserted into the inducible plasmid cassette with a C-terminal HA tag using restriction enzymes BsrGI and AgeI. Positive clones were selected in DH5a cells, sequenced, and transfected into A549, U2OS or HeLa acceptor cells along with plasmid expressing the Cre recombinase. Recombined clones were selected by puromycin resistance (1 μg/mL) and induced with doxycycline (0.2 μg/mL) to express the desired protein. Protein expression was verified by immunofluorescence and western blot. All figures shown are after 4 days of induction unless otherwise stated. Protein VII and preVII were also verified by HPLC purification and mass spectrometry analysis. Point mutations were generated by gene synthesis from Genewiz.
Cells were grown on glass coverslips in 24-well plates and either infected or induced with doxycycline (0.2 μg/mL). […]

In test [1] the target is T1, HMGB1 (Homo sapiens, UniProt P09429).
T1 sequence (P09429 1-215): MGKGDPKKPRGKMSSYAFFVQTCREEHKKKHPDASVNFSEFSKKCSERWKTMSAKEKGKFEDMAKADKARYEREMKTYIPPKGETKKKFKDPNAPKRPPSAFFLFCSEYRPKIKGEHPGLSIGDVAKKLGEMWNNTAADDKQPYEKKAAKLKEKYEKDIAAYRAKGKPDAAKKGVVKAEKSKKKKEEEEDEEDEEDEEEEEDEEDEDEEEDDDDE
Description: In vitro binding assay: recombinant protein VII-His with HMGB1-GST, cobalt resin pull-down. To be noted: equimolar HMGB1-GST and protein VII-His. On the procedure: HMGB1-GST (Abnova) or GST (Sigma) were combined with recombinant protein VII-His at equimolar ratios and incubated at 4° C. for 1 hour. Complexes were then mixed with a cobalt resin (ThermoScientific 89964) to bind protein VII-His and any associated protein and washed three times in the binding buffer (50 mM Tris pH 8, 300 mM NaCl, 0.1% IGEPAL). The beads were then boiled in sample buffer, separated on a 4-12% NuPage gel and visualized by coomassie staining.

For another test, the system named is DNA. Description: Gel shift of recombinant protein VII-His with 195 bp DNA. The conditions noted are these: purified recombinant protein. The class given is binding. The procedure:
Gel shift and MNase digestion assays were carried out as described (Falk et al. (2015) Science 348:699-703; Hasson et al. (2013) Nat. Struct. Mol. Biol., 20:687-695; Sekulic et al. (2010) Nature 467:347-351). Briefly, nucleosomes were reconstituted by incubating purified recombinant histones with ‘601’ DNA of either 195 or 147 bp over a series of dialysis. Recombinant protein VII-His was then combined with nucleosomes at various molar ratios, incubated at room temperature for 15 minutes, and analyzed by native gel electrophoresis. Complexes were also digested with MNase (Affymetrix) by addition of 1 unit per μg of DNA for 147 bp nucleosome experiments and 0.1 unit per μg of DNA for 195 bp nucleosome experiments, incubated at 22° C. for varying amounts of time followed by the addition of EGTA and guanidine thiocyanate to stop the reaction. The DNA fragments were then purified using a MinElute PCR purification kit (Qiagen) and analyzed on an Agilent 2100 Bioanalyzer as described (Falk et al. (2015) Science 348:699-703).
(In general: A gel shift assay detects complexes by their altered migration in electrophoresis.)

The target in test [2] is T1, HMGB1. The experiment in a line: Release assay of HMGB1 in THP-1 cells. The class given is cell-based. On the set-up: endogenous in cells. To be noted: PMA-treated THP-1 cells, LPS plus nigericin. The procedure: (§1) THP-1 cells were seeded at a density of 2×10^5 cells per well in a 24-well plate, and stimulated into macrophage-like cells by addition of 10 ng/mL PMA for 48 hours. Cells were washed in PBS and transduced with recombinant adenovirus vectors expressing only GFP or protein VII-GFP such that >90% of cells were GFP positive. At 48 hours post transduction, cells were washed and 200 μL of serum free RPMI was added. To stimulate the inflammasome, LPS (Sigma-Aldrich L2880) with a final concentration of 0.5 μg/mL was added to wells and incubated for 2 hours, then nigericin (Sigma-Aldrich N7143) was added with a final concentration of 10 μM for 1 hour. Supernatants were collected and proteins precipitated overnight at 4° C. with a final concentration of 20% trichloroacetic acid (Sigma), washed with acetone, dried, and resuspended in 1×sample buffer with reducing agent (Invitrogen). For ELISA analysis, supernatants were harvested directly and HMGB1 content was detected by the manufacturer's instructions (Chondrex 6010). Cells were also harvested by the addition of 1×sample buffer with reducing agent (Invitrogen) and boiled. Supernatants and lysates were analyzed together by western blot.

Another test concerns LPS induced lung injury. Description: Murine model of LPS induced lung injury, BAL fluid analysis. The conditions noted are these: 24 hours after LPS exposure, versus mice expressing GFP. The class given is in vivo, mouse. The procedure: All mice were housed in SPF conditions. All studies in mice were carried out in accordance with the recommendations in the Guide for the Care and Use of Laboratory Animals of the National Institutes of Health. C57BL/6J male mice aged 8-10 weeks were used for experiments. Mice were sedated with ketamine and xylazine. Once sedated, mice underwent orotrachial intubation, as described (Das et al. (2013) J. Vis. Exp., (73):e50318), with a 20G angiocatheter from BD (Franklin Lakes, N.J.). Mice subsequently received 5e10 GC of recombinant adenovirus expressing VII-GFP or GFP purified as described above. Four days after infection, mice were exposed to aerosolized LPS, 3 mg/mL for 30 minutes as described (Jeyaseelan et al. (2004) Infect. Immun., 72:7247-7256). One day after LPS exposure, BAL, and lung tissue were harvested as detailed (Nick et al. (2000) J. Immunol., 164:2151-2159) and examined for HMGB1 content (ELISA, Chondrex 6010) and neutrophil count (hematoxylin and eosin stain kit EMD 65044/93). Immunostaining was carried out using standard methods. A minimum of four biological replicates were used for each condition studied. Mice were assigned a random number and color at the start of the experiment and were randomized. Technicians carrying out the experiments were blinded to the identity of the samples. Tissue samples were assigned a random study number such that the technician performing the analysis was blinded. Unblinding for the purpose of data analysis occurred only after all data had been collected.

In another test the target is T2, mouse HMGB1 (Mus musculus, UniProt P63158).
T2 construct: endogenous in cells; host or cells: mouse embryonic fibroblasts (MEF)
T2 sequence (P63158 1-215): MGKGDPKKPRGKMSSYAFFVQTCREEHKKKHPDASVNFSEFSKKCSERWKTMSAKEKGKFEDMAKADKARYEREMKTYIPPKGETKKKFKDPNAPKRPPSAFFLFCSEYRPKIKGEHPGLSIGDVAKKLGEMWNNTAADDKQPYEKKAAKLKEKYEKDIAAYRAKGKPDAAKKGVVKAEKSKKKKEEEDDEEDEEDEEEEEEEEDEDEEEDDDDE
The experiment in a line: Mouse embryonic fibroblast (MEF) cells transduced to express protein VII-GFP: immunofluorescence and salt fractionation. In kind it is cell-based. On the procedure:
Cells were grown on glass coverslips in 24-well plates and either infected or induced with doxycycline (0.2 μg/mL). Cells were harvested for immunofluorescence at the indicated time points, washed in phosphate-buffered saline (PBS), fixed in 4% paraformaldehyde for 15 minutes and post-fixed with 100% ice-cold methanol for 5 minutes. Coverslips were then blocked and stained as described (Lilley et al. (2011) PLoS Pathog., 7:e1002084) and mounted using ProLong Gold Antifade Reagent (Life Technologies). Immunofluorescence was visualized using a Zeiss LSM Confocal microscope and ZEN 2011 software. Images were processed using ImageJ and assembled with Adobe CS6. All scale bars show in the Figures are 10 μm unless otherwise stated.
Salt fractionation of nuclei was adapted from established protocols (Zaret, K. (2005) Micrococcal nuclease analysis of chromatin structure. Curr. Protoc. Mol., Biol. Chapter 21, Unit 21.1; Teves et al. (2012) Methods Mol. Biol., 833:421-432). […] The final pellet was resuspended in 400 μL ddH2O and all samples were analyzed together by western blot. An aliquot of each supernatant was set aside for DNA purification using a PCR purification kit (Qiagen) and analyzed by agarose gel electrophoresis. […]

In another test the target is T3, HMGB2 (Homo sapiens, UniProt P26583).
T3 construct: endogenous in cells; host or cells: THP-1 (PMA-differentiated)
T3 sequence (P26583 1-209): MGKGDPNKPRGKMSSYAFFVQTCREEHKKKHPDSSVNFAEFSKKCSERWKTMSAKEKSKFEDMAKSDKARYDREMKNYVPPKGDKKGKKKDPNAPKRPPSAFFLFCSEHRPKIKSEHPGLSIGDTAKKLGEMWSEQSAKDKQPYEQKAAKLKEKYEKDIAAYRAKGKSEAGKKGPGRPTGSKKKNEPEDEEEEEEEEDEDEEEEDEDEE
Description: Release assay of HMGB2 in THP-1 cells. The class given is cell-based. The conditions noted are these: PMA-treated THP-1 cells, LPS plus nigericin. On the procedure: as §1

For “PRM1: human protamine PRM1, a basic protein involved in sperm DNA compaction (ARYRCCRSQSRSRYYRQRQRSRRRRRRSCQTRRRAMRCCRPRYRPRCRRH; UniProt P04553 2-51, looked up) [reference compound]”, in the test with cellular chromatin, the “Effect on chromatin appearance” value is given as “did not affect chromatin appearance”.

B1: recombinant protein VII: Ad5 protein VII with C-terminal hexahistidine tag, purified from E. coli (protein)
chain: AKKRSDQHPVRVRGHYRAPWGAHKRGRTGRTTVDDAIDAVVEEARNYTPTPPPVSTVDAAIQTVVRGARRYAKMKRRRRRVARRHRRRPGTAAQRAAAALLNRARRTGRRAAMRAARRLAAGIVTVPPRSRRRAAAAAAAAISAMTQGRRGNVYWVRDSVSGLRVPVRTRPPRN
modifications: left off: small tags and cut ends
notes: Ad5 protein VII with C-terminal hexahistidine tag, purified from E. coli
As for B1, the “Direct binding of recombinant protein VII to HMGB1 in vitro” value in the test with HMGB1 [1] is “Direct binding”. In the test with DNA, the DNA binding entry is “binds to DNA”.

B2: protein VII-GFP (protein)
chain: AKKRSDQHPVRVRGHYRAPWGAHKRGRTGRTTVDDAIDAVVEEARNYTPTPPPVSTVDAAIQTVVRGARRYAKMKRRRRRVARRHRRRPGTAAQRAAAALLNRARRTGRRAAMRAARRLAAGIVTVPPRSRRRAAAAAAAAISAMTQGRRGNVYWVRDSVSGLRVPVRTRPPRN
modifications: left off: large carriers
With B2, in the test with HMGB1 [2], the HMGB1 in supernatants entry was “sufficient to inhibit HMGB1 and HMGB2 release”. Also, in the test on LPS induced lung injury, the “HMGB1 in BAL fluid” value is recorded as “decreases HMGB1” and the “Neutrophils in BAL fluid” value is reported as “significantly fewer”. Besides, in the test with mouse HMGB1, the “Relocalization of mouse HMGB1” value is “sufficient to relocalize mouse HMGB1” and the “Retention of mouse HMGB1 in the high salt fraction” value is given as “sufficient to retain mouse HMGB1 in the high salt fraction”. For the same molecule, the HMGB2 in supernatants entry with HMGB2 was “sufficient to inhibit HMGB1 and HMGB2 release”.
